Experimental data reported in patent EP4803151A2 (Lepu Biopharma Co., Ltd., dated 2026).
Changes are numbered by the printed parent chain.

T1: human full length DLL1 expressed on CHO-K1 cells (human, UniProt O00548 18-723)
T1 construct: whole, on cells; also called CHO-K1-hDLL1
T1 sequence (looked up): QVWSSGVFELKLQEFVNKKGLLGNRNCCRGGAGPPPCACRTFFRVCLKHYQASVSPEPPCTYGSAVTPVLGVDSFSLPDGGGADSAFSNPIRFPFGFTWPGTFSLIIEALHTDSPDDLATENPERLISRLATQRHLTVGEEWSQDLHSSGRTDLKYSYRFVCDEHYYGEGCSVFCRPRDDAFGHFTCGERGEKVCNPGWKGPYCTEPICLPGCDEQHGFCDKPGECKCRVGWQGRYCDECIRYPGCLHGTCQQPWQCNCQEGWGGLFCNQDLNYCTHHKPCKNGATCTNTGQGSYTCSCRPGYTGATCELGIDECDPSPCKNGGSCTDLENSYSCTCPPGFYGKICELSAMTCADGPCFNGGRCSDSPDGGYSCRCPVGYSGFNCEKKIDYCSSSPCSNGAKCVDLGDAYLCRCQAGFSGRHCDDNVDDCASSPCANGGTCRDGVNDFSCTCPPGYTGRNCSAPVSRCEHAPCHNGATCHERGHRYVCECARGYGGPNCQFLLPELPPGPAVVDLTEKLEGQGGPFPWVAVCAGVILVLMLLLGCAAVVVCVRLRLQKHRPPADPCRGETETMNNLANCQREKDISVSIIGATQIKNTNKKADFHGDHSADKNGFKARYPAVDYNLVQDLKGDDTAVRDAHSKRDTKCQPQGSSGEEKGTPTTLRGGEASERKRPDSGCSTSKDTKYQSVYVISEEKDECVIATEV

T2: ECD of human DLL3 over-expressed on HEK293 cells (human, UniProt Q9NYJ7 27-492)
T2 construct: extracellular domain; also called HEK293-hDLL3; human DLL3 expressed on HEK293 cells
T2 sequence (looked up): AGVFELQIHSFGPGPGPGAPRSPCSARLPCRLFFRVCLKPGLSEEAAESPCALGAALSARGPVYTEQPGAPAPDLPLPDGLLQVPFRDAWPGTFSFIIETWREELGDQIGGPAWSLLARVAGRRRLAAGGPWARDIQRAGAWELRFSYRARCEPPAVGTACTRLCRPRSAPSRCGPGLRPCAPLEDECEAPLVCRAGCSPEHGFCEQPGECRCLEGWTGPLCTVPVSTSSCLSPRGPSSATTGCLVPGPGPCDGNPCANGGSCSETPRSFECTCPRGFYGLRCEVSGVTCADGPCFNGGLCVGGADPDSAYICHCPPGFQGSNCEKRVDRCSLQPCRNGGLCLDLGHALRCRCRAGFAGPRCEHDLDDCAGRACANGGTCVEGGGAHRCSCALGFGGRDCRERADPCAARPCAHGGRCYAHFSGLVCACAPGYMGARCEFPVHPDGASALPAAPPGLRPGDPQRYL

T3: ECD of human DLL3 protein fused with his tag (Acro Bio, Cat. No. DL3-H52H4) (human, UniProt Q9NYJ7 27-492)
T3 construct: range 27-492; Bought protein; also called hDLL3-his; human DLL3-his protein; not shown: his tag
T3 sequence (looked up): T2 sequence (looked up)

T4: human DLL3 endogenously expressed on SCLC tumor cell lines SHP77 and NCI-H82 (human, UniProt Q9NYJ7 27-618)
T4 construct: whole, on cells; also called human DLL3 expressed on tumor cells
T4 sequence (looked up): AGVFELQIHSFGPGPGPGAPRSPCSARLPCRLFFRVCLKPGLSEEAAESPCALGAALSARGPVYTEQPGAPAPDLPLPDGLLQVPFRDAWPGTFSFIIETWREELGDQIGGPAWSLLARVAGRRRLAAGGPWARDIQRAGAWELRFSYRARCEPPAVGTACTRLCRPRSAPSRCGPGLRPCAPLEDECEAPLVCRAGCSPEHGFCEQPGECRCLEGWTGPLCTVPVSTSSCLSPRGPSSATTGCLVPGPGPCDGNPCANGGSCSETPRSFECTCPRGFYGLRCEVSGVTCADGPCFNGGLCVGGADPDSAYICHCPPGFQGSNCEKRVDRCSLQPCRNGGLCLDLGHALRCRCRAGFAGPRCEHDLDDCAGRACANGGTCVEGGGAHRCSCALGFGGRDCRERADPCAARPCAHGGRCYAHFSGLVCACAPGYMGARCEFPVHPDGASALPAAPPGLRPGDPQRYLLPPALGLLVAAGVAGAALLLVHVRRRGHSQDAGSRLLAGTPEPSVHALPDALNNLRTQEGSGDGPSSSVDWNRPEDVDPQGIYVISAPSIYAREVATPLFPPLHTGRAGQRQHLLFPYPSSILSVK

B1: 310P3C5-z8 humanized antibody (antibody, human IgG1, kappa, V domains shown)
VH: QVQLVQSGAEVKKPGASVKVSCKASGYTFTDFYMNWVRQAPGQGLEWIGDANPNNGGTTHNPRFKGQATLTVDKSTSTAYMELRSLRSDDTAVYYCARGGLPGDFDYWGQGTTVTVSS
VL: DIQMTQSPSSVSASVGDRVTITCKASEDIYNRLAWYQQKPGKAPKLLISGVTSLETGVPSRFSGSGSGTDFTLTISSLQPEDFATYYCQQYWSFPWTFGGGTKVEIKR
notes: HU-VH1-4 with HU-VL1-2; human IgG1
B2: 310P3C5-z15 humanized antibody (antibody, human IgG1, kappa, V domains shown)
VH: B1 VH with R38K, Q67R, T76A, D89E
VL: B1 VL with V11L, L73F, F83I
notes: human IgG1
B3: 310P3C5-z14 humanized antibody (antibody, human IgG1, kappa, V domains shown)
VH: B1 VH with R38K, Q67R, T76A, D89E
VL: B1 VL with S49Y
notes: HU-VH2 with HU-VL1-1; human IgG1
B4: 310P3C5-z12 humanized antibody (antibody, human IgG1, kappa, V domains shown)
VH: B1 VH
VL: B1 VL with T69K
notes: HU-VH1-4 with HU-VL1-3; human IgG1
B5: 310P3C5-z4 humanized antibody (antibody, human IgG1, kappa, V domains shown)
VH: B1 VH
VL: B1 VL with S49Y
notes: HU-VH1-4 with HU-VL1-1; human IgG1

Target: T1, human full length DLL1 expressed on …
Test: flow cytometry on CHO-K1-hDLL1 cells

Binder	binding result
B1	no binding
B2	no binding
B3	no binding
B4	no binding
B5	no binding

Target: T2, ECD of human DLL3 over-expressed on …
Test: flow cytometry on HEK293-hDLL3 cells

Binder	binding result
B1	binds
B2	binds
B3	binds
B4	binds
B5	binds

Target: T5, human full length DLL4 expressed on CHO-K1 cells (human, UniProt Q9NR61 27-685)
T5 construct: whole, on cells; also called CHO-K1-hDLL4
Test: flow cytometry on CHO-K1-hDLL4 cells

T5 sequence (Q9NR61 27-685): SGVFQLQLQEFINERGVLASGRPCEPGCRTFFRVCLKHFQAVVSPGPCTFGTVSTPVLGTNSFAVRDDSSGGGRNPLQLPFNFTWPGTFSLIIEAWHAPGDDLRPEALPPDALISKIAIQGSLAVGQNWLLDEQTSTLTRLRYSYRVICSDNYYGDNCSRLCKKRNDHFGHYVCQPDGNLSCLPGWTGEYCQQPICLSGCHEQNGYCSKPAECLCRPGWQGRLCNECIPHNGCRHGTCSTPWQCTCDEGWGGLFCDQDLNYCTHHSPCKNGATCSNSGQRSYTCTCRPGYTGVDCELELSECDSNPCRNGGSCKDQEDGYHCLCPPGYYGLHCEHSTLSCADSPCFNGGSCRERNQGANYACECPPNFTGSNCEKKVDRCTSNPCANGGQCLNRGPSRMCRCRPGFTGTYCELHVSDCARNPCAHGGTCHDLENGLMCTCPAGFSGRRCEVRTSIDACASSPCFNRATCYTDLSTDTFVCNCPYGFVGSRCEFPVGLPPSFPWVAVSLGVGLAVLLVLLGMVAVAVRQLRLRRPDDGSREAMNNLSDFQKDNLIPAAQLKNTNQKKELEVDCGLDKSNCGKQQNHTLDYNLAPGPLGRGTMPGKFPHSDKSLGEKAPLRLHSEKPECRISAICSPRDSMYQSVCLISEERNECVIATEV

Binder	binding result
B1	no binding
B2	no binding
B3	no binding
B4	no binding
B5	no binding

Target: T3, ECD of human DLL3 protein fused with …
Test: ELISA, hDLL3-his coated

Binder	binding result
B1	binds
B2	binds
B3	binds
B4	binds
B5	binds

Target: T4, human DLL3 endogenously expressed on …
Test: flow cytometry on SHP77 and NCI-H82 cells

Binder	binding result
B1	binds
B2	binds
B3	binds
B4	binds
B5	binds
